As a reminder, the Kd is the free concentration of one partner at which half of the binding sites on the other are occupied at equilibrium, for simple one-to-one binding. A word on the koff: it is the first-order rate constant of dissociation. High values mean fast dissociation, low ones slow dissociation. The kon is the rate constant with which the complex forms. A lower kon goes with slower complex formation.

“And” between values parts separate entries of the source, which are not always exact repeats. Equal entries are not always repeated.

Common to all, as to conditions: both partners purified
Assay [1] concerns the target T1, cleaved high-molecular-weight kininogen (HKa), purified (Homo sapiens, UniProt P01042, biotin (biotinylated HKa in the Fab screening ELISA) | biotin (biotinylated HKa in the Fab screening ELISA)).
T1 construct: heavy chain of HKa, the two-chain disulfide-linked product of high-molecular-weight kininogen after release of bradykinin, human; light chain of HKa, human; the purified HKa standard mainly consists of the 46-kDa light chain; also called cleaved HK; purified HKa standard protein; source: bought: Enzyme Research Laboratories
Nature of the assay: SPR; in the presence of zinc chloride. Background: Surface plasmon resonance follows binding to a sensor surface in real time, without labels.

Assay [2] deals with T1, cleaved high-molecular-weight kininogen …. The assay can be described thus: SPR; in the absence of zinc chloride.
Assay [3] deals with T2, cleaved high-molecular-weight kininogen (HKa) (Homo sapiens, UniProt P01042).
T2 construct: the two chains are linked by a disulfide; light chain of HKa (56-kDa or 46-kDa form); the purified HKa standard protein mainly consists of the 46-kDa light chain; also called cleaved HK; source: bought: Enzyme Research Laboratories
The assay can be described thus: SPR; HKa immobilised by amine coupling on a CM5 chip (~400 RU), M4-B4 injected 2 min at 50 uL/min, 15 min dissociation; Biacore 3000, 25°C, HBS-P (10 mM HEPES pH 7.4, 150 mM NaCl, 0.005% P20) with 200 uM ZnCl2; regeneration 10 mM glycine pH 1.5; 1:1 model.

The target of assay [4] is T2, cleaved high-molecular-weight kininogen …. The assay can be described thus: SPR; HKa immobilised by amine coupling on a CM5 chip (~400 RU), M4-B4 injected 2 min at 50 uL/min, 15 min dissociation; Biacore 3000, 25°C, HBS-P (10 mM HEPES pH 7.4, 150 mM NaCl, 0.005% P20); no added ZnCl2; 1:1 model.

T2 sequence (P01042 whole entry, looked up): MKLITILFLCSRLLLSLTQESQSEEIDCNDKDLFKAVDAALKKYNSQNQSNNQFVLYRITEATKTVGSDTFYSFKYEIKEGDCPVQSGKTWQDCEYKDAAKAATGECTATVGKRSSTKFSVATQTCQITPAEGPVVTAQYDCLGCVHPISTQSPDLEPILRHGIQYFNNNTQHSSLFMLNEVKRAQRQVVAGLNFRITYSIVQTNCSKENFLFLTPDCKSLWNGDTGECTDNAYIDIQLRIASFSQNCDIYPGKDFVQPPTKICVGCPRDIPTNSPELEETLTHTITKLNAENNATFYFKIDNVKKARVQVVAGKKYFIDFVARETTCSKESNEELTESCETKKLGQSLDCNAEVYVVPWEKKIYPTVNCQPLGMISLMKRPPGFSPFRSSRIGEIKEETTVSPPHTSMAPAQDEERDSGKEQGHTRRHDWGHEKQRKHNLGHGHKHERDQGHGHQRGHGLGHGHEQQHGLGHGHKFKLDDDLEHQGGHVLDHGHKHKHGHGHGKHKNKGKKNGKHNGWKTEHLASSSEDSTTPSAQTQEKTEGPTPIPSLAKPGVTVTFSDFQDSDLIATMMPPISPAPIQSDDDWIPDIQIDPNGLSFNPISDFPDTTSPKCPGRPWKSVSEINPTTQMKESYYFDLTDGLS

B1: M4-B4 antibody (Fab or IgG, format not told for the experiment) (antibody, V domains shown)
VH: EVQLLESGGGLVQPGGSLRLSCAASGFTFSFYVMVWVRQAPGKGLEWVSGISPSGGNTAYADSVKGRFTISRDNSKNTLYLQMNSLRAEDTAVYYCARKLFYYDDTKGYFDFWGQGTLVTVSS
VL: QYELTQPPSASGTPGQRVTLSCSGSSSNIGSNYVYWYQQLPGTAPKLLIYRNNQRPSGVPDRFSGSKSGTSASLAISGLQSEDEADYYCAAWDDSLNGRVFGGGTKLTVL
notes: variable part as the heavy chain of m1; as the light chain of m1; The optimised ELISA coated 'the M4-B4 Fab or IgG'; also called HKa-specific antibody
For the molecule B1, the dissociation constant Kd in assay [1] worked out at 1.06 ± 0.25 nM; in assay [2], 6.08 ± 0.26 nM.

B2: M4-B4 (antibody, V domains shown)
VH: B1 VH
VL: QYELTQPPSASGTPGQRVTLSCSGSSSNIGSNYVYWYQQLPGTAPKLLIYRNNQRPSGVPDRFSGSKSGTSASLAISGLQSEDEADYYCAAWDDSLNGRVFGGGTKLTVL
notes: The legend of the SPR says only 'M4-B4 injected'; also called M004-B04; 559B-M0004-B04; source: Fab: E. coli, purified (protein A Sepharose); IgG1: 293T cells, transiently expressed, purified (protein A Sepharose)
As for B2, in assay [3], the Kd was 1.09 nM and 1.24 nM and 0.881 nM; the koff was 0.00125 s⁻¹ and 0.00172 s⁻¹ and 0.00156 s⁻¹ and 0.00164 s⁻¹; the kon is 1.38e+06 M⁻¹ s⁻¹ and 1.77e+06 M⁻¹ s⁻¹ and 1.58e+06 M⁻¹ s⁻¹ and 1.15e+06 M⁻¹ s⁻¹. For the same molecule, in assay [4], the dissociation constant Kd was 5.9 nM and 6.26 nM; the koff is 0.0067 s⁻¹ and 0.00616 s⁻¹ and 0.00643 s⁻¹; the association rate constant (kon) is 1.1e+06 M⁻¹ s⁻¹ (2×) and 984000 M⁻¹ s⁻¹.

The values are drawn from article PMC11464748, “A novel assay of excess plasma kallikrein-kinin system activation in hereditary angioedema” (Frontiers in Allergy, 2024).
